Where a chain is given by its changes, count along the chain named. In names and notes the source's numbering stands.
T1: human C2b fragment (huC2b) (human, UniProt P06681 21-243)
T1 construct: Supernatant of transfected HEK293 cells; not shown: FLAG tag (the construct is detected with anti-FLAG)
T1 sequence: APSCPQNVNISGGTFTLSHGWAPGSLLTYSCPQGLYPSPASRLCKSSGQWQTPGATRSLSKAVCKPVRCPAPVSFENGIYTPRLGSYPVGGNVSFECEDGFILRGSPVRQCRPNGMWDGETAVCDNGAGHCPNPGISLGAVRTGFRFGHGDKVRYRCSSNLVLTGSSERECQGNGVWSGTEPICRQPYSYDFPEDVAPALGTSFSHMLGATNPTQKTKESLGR

T2: wild type C2 with C-terminal FLAG tag (human, UniProt P06681 21-752)
T2 construct: Secreted into the supernatant of transfected HEK293T cells; not shown: C-terminal FLAG tag
T2 sequence: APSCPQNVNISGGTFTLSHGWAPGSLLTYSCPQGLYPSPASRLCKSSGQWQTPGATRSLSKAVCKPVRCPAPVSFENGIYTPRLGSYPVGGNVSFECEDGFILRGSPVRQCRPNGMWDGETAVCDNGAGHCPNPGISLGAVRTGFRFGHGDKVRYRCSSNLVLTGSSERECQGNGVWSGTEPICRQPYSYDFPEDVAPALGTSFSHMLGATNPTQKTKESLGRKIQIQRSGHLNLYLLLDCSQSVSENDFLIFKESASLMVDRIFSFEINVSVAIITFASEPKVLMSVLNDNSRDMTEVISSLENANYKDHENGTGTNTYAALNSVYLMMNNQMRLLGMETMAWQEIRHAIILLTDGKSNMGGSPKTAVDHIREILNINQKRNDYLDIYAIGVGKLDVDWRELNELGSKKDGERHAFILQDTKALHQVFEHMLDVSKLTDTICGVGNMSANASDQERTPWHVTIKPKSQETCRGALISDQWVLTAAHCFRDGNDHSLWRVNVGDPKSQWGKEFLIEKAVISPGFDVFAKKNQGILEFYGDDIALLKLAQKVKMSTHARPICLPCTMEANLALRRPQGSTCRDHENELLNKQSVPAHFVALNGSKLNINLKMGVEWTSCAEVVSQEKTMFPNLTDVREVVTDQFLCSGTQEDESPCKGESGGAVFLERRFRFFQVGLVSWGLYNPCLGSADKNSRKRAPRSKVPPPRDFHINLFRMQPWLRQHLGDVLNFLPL

T3: huC2b with mouse S2 (huC2b-mS2) (mouse, UniProt P06681 21-243 (human entry))
T3 chain: T1 sequence with P70L, V73S, T81F, G85V, G91S, D99Q, G100D, I102T, Q110Y, M116L

T4: mouse C2 (mouse, UniProt P21180 19-760, limits assumed)
T4 sequence (looked up): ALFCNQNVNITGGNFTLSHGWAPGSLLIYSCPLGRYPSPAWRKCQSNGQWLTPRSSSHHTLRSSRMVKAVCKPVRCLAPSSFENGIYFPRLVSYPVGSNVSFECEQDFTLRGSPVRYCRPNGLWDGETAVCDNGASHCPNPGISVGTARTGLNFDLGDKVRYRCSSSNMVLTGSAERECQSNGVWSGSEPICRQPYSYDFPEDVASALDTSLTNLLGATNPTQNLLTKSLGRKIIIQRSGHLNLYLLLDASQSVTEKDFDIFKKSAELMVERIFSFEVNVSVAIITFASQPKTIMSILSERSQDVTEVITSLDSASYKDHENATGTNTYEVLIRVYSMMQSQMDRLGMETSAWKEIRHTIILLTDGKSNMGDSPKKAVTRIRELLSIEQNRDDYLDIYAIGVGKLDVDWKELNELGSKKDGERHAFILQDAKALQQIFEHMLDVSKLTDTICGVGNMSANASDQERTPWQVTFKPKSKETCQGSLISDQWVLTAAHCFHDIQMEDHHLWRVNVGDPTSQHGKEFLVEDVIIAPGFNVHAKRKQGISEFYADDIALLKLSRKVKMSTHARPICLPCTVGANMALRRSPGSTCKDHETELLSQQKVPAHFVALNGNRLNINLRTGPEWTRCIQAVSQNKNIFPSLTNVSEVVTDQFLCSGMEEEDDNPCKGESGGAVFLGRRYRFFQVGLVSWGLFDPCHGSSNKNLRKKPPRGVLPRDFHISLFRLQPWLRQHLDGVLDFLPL

T5: human complement factor C2 (human, UniProt P06681 21-752)
T5 construct: also called human C2; recombinant human C2
T5 sequence: T2 sequence

B1: anti-C2-5F2.4 mAb (human IgG4 S241P VH4/VL3 LC-13/03-163A Bioceros) (antibody, V domains shown)
VH: EVQLVQSGAEVKKPGASVKVSCKASGYTFTDYNMDWVRQATGQGLEWIGDINPNYESTGYNQKFKGRATMTVNKSISTAYMELSSLRSEDTAVYYCAREDDHDAFAYWGQGTLVTVSS
VL: DNVLTQSPDSLAVSLGERATISCRASKSVRTSGYNYMHWYQQKPGQPPKLLIYLASNLKSGVPDRFSGSGSGTDFTLTISSLQAEDAATYYCQHSRELPYTFGQGTKLEIK
notes: Human IgG4 S241P; also called humanized 5F2.4
B2: Fab of ARGX-117 (Fab, V domains shown)
VH: B1 VH with N73D
VL: B1 VL

What was measured:
[1] = target: T1, human C2b fragment (huC2b); test: sandwich ELISA: coated anti-C2-5F2.4, HEK293 supernatant diluted 20 times, detection with anti-FLAG
[2] = target: T2, wild type C2 with C-terminal FLAG tag; test: as above
Method: FIG. 12 depicts results obtained with a domain swap ELISA performed with anti-C2-5F2.4. Anti-C2-5F2.4 mAb (human IgG4 S241P VH4/VL3 LC-13/03-163A Bioceros) was used for coating, plates were incubated with 20 times diluted supernatant of HEK293 transfectants, and binding was detected by an anti-FLAG Ab. Representative results from two independent experiments with similar outcome.
Next, the recognition of the swap mutants by the anti-C2-5F2.4 antibody was investigated. To this effect, microplates (Maxisorp, NUNC, Cat #439454) were coated overnight with 2 μg/mL anti-C2-5F2.4 in 100 μL PBS. Plates were washed 4 times with PBS with 0.05% Tween-20 and blocked with 200 μL PBS with 0.1% Tween-20 with 1% bovine serum albumin (BSA) (PBST-BSA) for 1 hour at RT. After washing, 100 μL culture supernatant containing mutants were added 20× diluted in PBST-BSA and incubated for 2 hours at RT with agitation. After washing, as detection antibody 1 μg/mL biotinylated anti-FLAG (clone M2, Sigma-Aldrich) was added in PBST-BSA for 1 hour at RT. The plate was washed and 1 μg/mL streptavidin-POD conjugate (Roche, Cat #11089153001) was added and incubated in the dark for 30 minutes. […] Absorbance was measured at 450 nm on a microplate reader (BioRad, iMark Microplate reader).

[3] = target: T3, huC2b with mouse S2 (huC2b-mS2); test: sandwich ELISA: coated anti-C2-5F2.4, HEK293 supernatant, detection with anti-FLAG
mouse C2 = target: T4, mouse C2; test: not described
[4] = target: T5, human complement factor C2; test: SPR (Biacore), C2 coated on the chip, Fab in solution, 1:1 model; C2 on the chip, Fab in solution

Binder	binding result [1]	binding result [2]	binding result [3]	binding result (mouse C2)	Kd [4] [nM]
B1	binds	binds	no binding	no binding	
B2					~0.3

Reference: US20220119509A1 (ARGENX, published 2022)
